Source: patent US20220411504A1 (Janssen / Centocor, published 2022)

How the values were obtained:
[1] = target: T1, DLL3 on tumor cells (SHP-77, HCC1833, G361) (human, UniProt Q9NYJ7 27-618); assay: cell-based or functional assay
T1 sequence: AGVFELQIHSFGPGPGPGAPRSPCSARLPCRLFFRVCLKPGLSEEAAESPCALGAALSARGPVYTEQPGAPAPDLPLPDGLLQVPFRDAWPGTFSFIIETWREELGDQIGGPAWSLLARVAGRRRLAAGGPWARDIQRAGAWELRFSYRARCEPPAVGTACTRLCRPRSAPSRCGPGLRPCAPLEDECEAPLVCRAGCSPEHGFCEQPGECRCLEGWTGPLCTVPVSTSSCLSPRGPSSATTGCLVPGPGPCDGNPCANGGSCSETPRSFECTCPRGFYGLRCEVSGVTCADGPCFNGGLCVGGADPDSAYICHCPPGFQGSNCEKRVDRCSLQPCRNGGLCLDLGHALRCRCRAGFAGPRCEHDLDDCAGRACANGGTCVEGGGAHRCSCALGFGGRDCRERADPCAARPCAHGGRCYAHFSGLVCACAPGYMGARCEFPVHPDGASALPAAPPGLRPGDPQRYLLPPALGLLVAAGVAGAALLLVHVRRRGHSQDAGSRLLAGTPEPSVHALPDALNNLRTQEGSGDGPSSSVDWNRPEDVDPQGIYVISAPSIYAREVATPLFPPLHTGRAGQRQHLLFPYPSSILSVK

[2] = target: T2, recombinant human DLL3 (human, UniProt Q9NYJ7 27-492); assay: SPR (Biacore T200), antibody captured by goat anti-Fc, DLL3 titrated
T2 construct: also called DLL3 antigen; Delta-like protein 3
T2 sequence: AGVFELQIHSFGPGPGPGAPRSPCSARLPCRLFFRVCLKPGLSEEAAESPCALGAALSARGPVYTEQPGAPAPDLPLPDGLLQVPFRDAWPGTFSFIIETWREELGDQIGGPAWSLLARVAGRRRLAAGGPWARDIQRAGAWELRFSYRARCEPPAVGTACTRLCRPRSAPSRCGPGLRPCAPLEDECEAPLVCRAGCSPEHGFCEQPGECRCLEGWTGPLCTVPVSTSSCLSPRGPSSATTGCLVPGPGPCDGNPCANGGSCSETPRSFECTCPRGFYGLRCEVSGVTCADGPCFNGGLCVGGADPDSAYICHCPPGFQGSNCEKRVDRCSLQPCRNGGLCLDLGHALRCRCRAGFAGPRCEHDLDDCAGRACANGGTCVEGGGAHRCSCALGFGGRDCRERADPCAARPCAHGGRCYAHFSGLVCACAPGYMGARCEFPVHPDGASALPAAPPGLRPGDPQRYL

[3] = target: recombinant HLA-G (human); assay: ELISA after 10 min heat treatment of the scFv supernatant
[4] = target: recombinant HLA-G (human); assay: ELISA, scFv in E. coli supernatant on recombinant HLA-G
[5] = target: T3, MHGW8 (B2m-3(G4S)-HLA-G1-G4S-Avi) (human, biotinylated (Avi tag) in the blocking assay); assay: flow cytometry competition: blocks MHGW8-dextramer binding to ILT4 on HEK293T cells (competitor ILT4)
T3 construct: Single chain β2m-HLA-G1; also called soluble HLA-G1 extracellular domain; recombinant biotinylated HLA-G1

[6] = target: T3, MHGW8 (B2m-3(G4S)-HLA-G1-G4S-Avi); assay: flow cytometry competition: blocks MHGW8-dextramer binding to ILT2 on HEK293T cells (competitor ILT2)
[7] = target: T4, HLA-G on cells (K562-HLA-G and HLA-G expressing tumor cells) (human); assay: flow cytometry, IgG1 mAb on cells expressing HLA-G
T4 construct: whole, on cells; also called HLA-G1

[8] = target: T3, MHGW8 (B2m-3(G4S)-HLA-G1-G4S-Avi); assay: SPR, mAb captured by goat anti-human Fc, MHGW8 flowed

Row | Kd [2] [nM] | EC50 [5] [nM] | EC50 [6] [nM] | GeoMean fluorescence (maximum value) [7] | Kd [8] [nM] | koff [8] [s⁻¹] | kon [8] [M⁻¹ s⁻¹] | Binder | Cytotoxicity, % lysis of SHP-77 cells (whole PBMCs, 1:1 ET, 30 nM) [1] [%] | further results
1 | 0.031 |  |  |  |  |  |  | DL3B587 (bispecific antibody, human IgG1, kappa, L234A L235A, also called CD3W245-Fab; DL3B279-LH-scFv) scFv: DIQMTQSPSSLSASVGDRVTITCRASQGISNYLAWFQQKPGKAPKSLIYAASSLQSGVPSKFSGSGSGTDFTLTISSLQPEDFATYYCQQYNSYPYTFAQGTKLEIKGGSEGKSSGSGSESKSTGGSQVQLVQSGAEVKKPGASVKVSCKASGNTFTNYYIHWVRQAPGQGLEWMGIINPSGGSTSYAQKLQGRMTMTRDTSTSTVYMELSSLRSEDTAVYFCARQGPFIGDAFDIWGQGTMVTVSSEPKSSDKTHTCPPCPAPEAAGGPSVFLFPPKPKDTLMISRTPEVTCVVVSVSHEDPEVKFNWYVDGVEVHNAKTKPREEQYNSTYRVVSVLTVLHQDWLNGKEYKCKVSNKALPAPIEKTISKAKGQPREPQVYVLPPSREEMTKNQVSLLCLVKGFYPSDIAVEWESNGQPENNYLTWPPVLDSDGSFFLYSKLTVDKSRWQQGNVFSCSVMHEALHNHYTQKSLSLS heavy: EVQLVESGGGLVKPGGSLRLSCAASGFTFSRYNMNWVRQAPGKGLEWVSSISTSSNYIYYADSVKGRFTFSRDNAKNSLDLQMSGLRAEDTAIYYCTRGWGPFDYWGQGTLVTVSSASTKGPSVFPLAPSSKSTSGGTAALGCLVKDYFPEPVTVSWNSGALTSGVHTFPAVLQSSGLYSLSSVVTVPSSSLGTQTYICNVNHKPSNTKVDKKVEPKSCDKTHTCPPCPAPEAAGGPSVFLFPPKPKDTLMISRTPEVTCVVVSVSHEDPEVKFNWYVDGVEVHNAKTKPREEQYNSTYRVVSVLTVLHQDWLNGKEYKCKVSNKALPAPIEKTISKAKGQPREPQVYVYPPSREEMTKNQVSLTCLVKGFYPSDIAVEWESNGQPENNYKTTPPVLDSDGSFALVSKLTVDKSRWQQGNVFSCSVMHEALHNHYTQKSLSLSPG light: DIQMTQSPSSLSASVGDRVTITCRARQSIGTAIHWYQQKPGKAPKLLIKYASESISGVPSRFSGSGSGTDFTLTISSLQPEDFATYYCQQSGSWPYTFGQGTKLEIKRTVAAPSVFIFPPSDEQLKSGTASVVCLLNNFYPREAKVQWKVDNALQSGNSQESVTEQDSKDSTYSLSSTLTLSKADYEKHKVYACEVTHQGLSSPVTKSFNRGEC | 83.3 | 
2 | 0.016 |  |  |  |  |  |  | DL3B582 (bispecific antibody, also called CD3W245-LH-scFv; DL3B279-Fab) heavy: QVQLVQSGAEVKKPGASVKVSCKASGNTFTNYYIHWVRQAPGQGLEWMGIINPSGGSTSYAQKLQGRMTMTRDTSTSTVYMELSSLRSEDTAVYFCARQGPFIGDAFDIWGQGTMVTVSSASTKGPSVFPLAPSSKSTSGGTAALGCLVKDYFPEPVTVSWNSGALTSGVHTFPAVLQSSGLYSLSSVVTVPSSSLGTQTYICNVNHKPSNTKVDKKVEPKSCDKTHTCPPCPAPEAAGGPSVFLFPPKPKDTLMISRTPEVTCVVVSVSHEDPEVKFNWYVDGVEVHNAKTKPREEQYNSTYRVVSVLTVLHQDWLNGKEYKCKVSNKALPAPIEKTISKAKGQPREPQVYVLPPSREEMTKNQVSLLCLVKGFYPSDIAVEWESNGQPENNYLTWPPVLDSDGSFFLYSKLTVDKSRWQQGNVFSCSVMHEALHNHYTQKSLSLSPG light: DIQMTQSPSSLSASVGDRVTITCRASQGISNYLAWFQQKPGKAPKSLIYAASSLQSGVPSKFSGSGSGTDFTLTISSLQPEDFATYYCQQYNSYPYTFAQGTKLEIKRTVAAPSVFIFPPSDEQLKSGTASVVCLLNNFYPREAKVQWKVDNALQSGNSQESVTEQDSKDSTYSLSSTLTLSKADYEKHKVYACEVTHQGLSSPVTKSFNRGEC scFv: DIQMTQSPSSLSASVGDRVTITCRARQSIGTAIHWYQQKPGKAPKLLIKYASESISGVPSRFSGSGSGTDFTLTISSLQPEDFATYYCQQSGSWPYTFGQGTKLEIKGGSEGKSSGSGSESKSTGGSEVQLVESGGGLVKPGGSLRLSCAASGFTFSRYNMNWVRQAPGKGLEWVSSISTSSNYIYYADSVKGRFTFSRDNAKNSLDLQMSGLRAEDTAIYYCTRGWGPFDYWGQGTLVTVSSEPKSSDKTHTCPPCPAPEAAGGPSVFLFPPKPKDTLMISRTPEVTCVVVSVSHEDPEVKFNWYVDGVEVHNAKTKPREEQYNSTYRVVSVLTVLHQDWLNGKEYKCKVSNKALPAPIEKTISKAKGQPREPQVYVYPPSREEMTKNQVSLTCLVKGFYPSDIAVEWESNGQPENNYKTTPPVLDSDGSFALVSKLTVDKSRWQQGNVFSCSVMHEALHNHYTQKSLSLSPG | 87.3 | 
3 | 0.016 |  |  |  |  |  |  | DL3B583 (bispecific antibody, also called CD3W245-HL-scFv; DL3B279-Fab) heavy: QVQLVQSGAEVKKPGASVKVSCKASGNTFTNYYIHWVRQAPGQGLEWMGIINPSGGSTSYAQKLQGRMTMTRDTSTSTVYMELSSLRSEDTAVYFCARQGPFIGDAFDIWGQGTMVTVSSASTKGPSVFPLAPSSKSTSGGTAALGCLVKDYFPEPVTVSWNSGALTSGVHTFPAVLQSSGLYSLSSVVTVPSSSLGTQTYICNVNHKPSNTKVDKKVEPKSCDKTHTCPPCPAPEAAGGPSVFLFPPKPKDTLMISRTPEVTCVVVSVSHEDPEVKFNWYVDGVEVHNAKTKPREEQYNSTYRVVSVLTVLHQDWLNGKEYKCKVSNKALPAPIEKTISKAKGQPREPQVYVLPPSREEMTKNQVSLLCLVKGFYPSDIAVEWESNGQPENNYLTWPPVLDSDGSFFLYSKLTVDKSRWQQGNVFSCSVMHEALHNHYTQKSLSLSPG light: DIQMTQSPSSLSASVGDRVTITCRASQGISNYLAWFQQKPGKAPKSLIYAASSLQSGVPSKFSGSGSGTDFTLTISSLQPEDFATYYCQQYNSYPYTFAQGTKLEIKRTVAAPSVFIFPPSDEQLKSGTASVVCLLNNFYPREAKVQWKVDNALQSGNSQESVTEQDSKDSTYSLSSTLTLSKADYEKHKVYACEVTHQGLSSPVTKSFNRGEC scFv: EVQLVESGGGLVKPGGSLRLSCAASGFTFSRYNMNWVRQAPGKGLEWVSSISTSSNYIYYADSVKGRFTFSRDNAKNSLDLQMSGLRAEDTAIYYCTRGWGPFDYWGQGTLVTVSSGGSEGKSSGSGSESKSTGGSDIQMTQSPSSLSASVGDRVTITCRARQSIGTAIHWYQQKPGKAPKLLIKYASESISGVPSRFSGSGSGTDFTLTISSLQPEDFATYYCQQSGSWPYTFGQGTKLEIKEPKSSDKTHTCPPCPAPEAAGGPSVFLFPPKPKDTLMISRTPEVTCVVVSVSHEDPEVKFNWYVDGVEVHNAKTKPREEQYNSTYRVVSVLTVLHQDWLNGKEYKCKVSNKALPAPIEKTISKAKGQPREPQVYVYPPSREEMTKNQVSLTCLVKGFYPSDIAVEWESNGQPENNYKTTPPVLDSDGSFALVSKLTVDKSRWQQGNVFSCSVMHEALHNHYTQKSLSLSPG | 99.8 | 
4 |  |  |  |  |  |  |  | MHGB665 v-region as scFv (E. coli supernatant) (scFv, V domains shown, One scFv chain) VH: QVQLQQSGPGLVKPSQTLSLTCAISGDSVSSNSAAWNWIRQSPSRGLEWLGRTYYRSKWYNDYAVSVKSRITINPDTSKNQISLQLNSVTPEDTAVYYCAGDRRYGIVGLPFAYWGQGTLVTVSS VL: not shown |  | % Binding retained 55° C. [3]: 103%; % Binding retained 60° C. [3]: 122%; % Binding retained 65° C. [3]: 11%; Room temperature binding signal [4]: 1.52e+07
5 |  | 1590 | 1700 | 616000 | 1.44 | 0.000453 | 315000 | MHGB669 (antibody, human IgG1, kappa, V domains shown, IgG1) VH: QVQLQQSGPGLVRPSQTLSVTCAISGDSVSSNSASWNWIRQSPSRGLEWLGRTYYRSEWFNDYAVSVKSRVTINPDTSKNQLSLQLNSVIPEDTAVYYCAREARIGVAGKGFDYWGQGTLVTVSS VL: not shown |  | 
6 |  | 1610 | 2120 | 522000 | 0.55 | 0.00179 | 3.25e+06 | MHGB672 (antibody, human IgG1, kappa, V domains shown, IgG1) VH: QVQLQQSGPGLVKPSQTLSLTCAISGDSVSSNRAAWNWIRQTPSRGLEWLGRTYYRSEWYNDYAVSVKSRITINPDTSKNQFSLQLNSVTPEDTAVYYCARVRAAVPFDYWGQGTLVTVSS VL: not shown |  | 
7 |  | 200 | 644 | 473000 | 1.15 | 0.0024 | 2.08e+06 | MHGB694 (antibody, human IgG1, kappa, V domains shown, IgG1) VH: EVQLLESGGGLVQPGGSLRLSCAASGFTFSSYAMHWVRQAPGKGLDWVSGISGSGFSTYYVDSVKGRFTISRDNSKHTLYLQMNSLRAEDTAVYYCAKDNLVAGTVFDYWGQGTLVTVSS VL: not shown |  | 
